Test results taken from patent US20210087238A1, “CELL PENETRATING PEPTIDES AND RELATED COMPOSITIONS AND METHODS” (Phylogica Limited, priority 2017, published 2021).
“Also recorded” adds a separate entry of the source.

What was measured:
[1] = system: AMO-1, HL-60, and T47D cell lines; assay: Omomyc cell viability assay, statements made for all three cell lines together; type: cell-based; conditions: 48 h; ATP activity; AMO-1, HL-60, T47D
Method: (§1) Treatment of (A) AMO-1 (plasmacytoma), (B) HL-60 (promyelocytic leukemia), and (C) T47D (breast cancer) cell lines with FPP-1.1_Omomyc protein. After 48 h incubation, cell viability was assessed by measuring ATP activity. […] Results are representative of two independent experiments. Error bars represent standard deviation from the mean of duplicate samples.
Treatment of AMO-1 (plasmacytoma), HL-60 (promyelocytic leukemia), and T47D (breast cancer) cell lines with FPP1.1_Omomyc or small molecule inhibitors. After a 48 h incubation, the cell viability was assessed by measuring ATP activity. […] Results are from one independent experiment. Error bars represent standard deviation from the mean of duplicate samples.
(§2) All assays followed manufacturer's instructions.

AMO-1 (plasmacytoma) = assay: Omomyc cell viability assay, ATP activity; type: cell-based; conditions: AMO-1 cells only
Method: as §1, §2

B1: Omomyc: Myc dominant negative peptide (protein)
chain: GPGGSGTGATSDTEENVKRRTHNVLERQRRNELKRSFFALRDQIPELENNEKAPKVVILKKATAYILSVQAETQKLISEIDLLRKQNEQLKHKLEQLRNSCA
modifications: Amino acid sequence of Omomyc
notes: Myc dominant negative peptide
**Q.** B1 was tested. Which “effect on cell viability” value [1] did it give?
**A.** no effect on cell viability; also recorded: poor potency; also recorded: minor effect on cell viability only at the highest concentrations

**Q.** And the “doses at which a slight reduction in cell viability was seen” value (AMO-1 (plasmacytoma))?
**A.** above 10 μM
